Reference: patent publication US20100196392A1 (Kyowa Kirin, published 2010)
Changes are numbered by the printed parent chain.

T1: human ASCT2 (system ASC amino acid transporter 2), endogenous on human cancer cell lines KMS-11, OPM-2, WiDr … (human, UniProt Q15758 1-541)
T1 construct: also called SLC1A5
T1 sequence: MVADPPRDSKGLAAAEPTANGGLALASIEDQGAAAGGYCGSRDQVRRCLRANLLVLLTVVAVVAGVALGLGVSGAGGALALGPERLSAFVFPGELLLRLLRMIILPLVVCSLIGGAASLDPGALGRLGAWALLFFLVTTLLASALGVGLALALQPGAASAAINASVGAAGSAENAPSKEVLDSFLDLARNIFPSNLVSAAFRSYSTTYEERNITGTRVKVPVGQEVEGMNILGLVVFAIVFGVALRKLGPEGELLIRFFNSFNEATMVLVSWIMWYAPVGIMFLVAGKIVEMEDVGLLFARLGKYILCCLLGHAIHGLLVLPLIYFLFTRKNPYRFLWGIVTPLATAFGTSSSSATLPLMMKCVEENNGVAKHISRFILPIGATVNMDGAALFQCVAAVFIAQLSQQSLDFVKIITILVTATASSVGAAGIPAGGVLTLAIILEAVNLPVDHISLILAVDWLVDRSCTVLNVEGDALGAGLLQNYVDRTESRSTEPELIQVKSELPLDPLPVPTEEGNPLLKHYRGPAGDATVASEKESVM

T2: human ASCT2-myc/His (fusion protein in which myc/His was added to the C-terminal of human ASCT2), expressed … (human, UniProt Q15758 1-541)
T2 construct: Also used as cell lysate in Western blotting and immunoprecipitation; also called ASCT2/CHO; human ASCT2-myc/His gene-introduced CHO cells
T2 sequence: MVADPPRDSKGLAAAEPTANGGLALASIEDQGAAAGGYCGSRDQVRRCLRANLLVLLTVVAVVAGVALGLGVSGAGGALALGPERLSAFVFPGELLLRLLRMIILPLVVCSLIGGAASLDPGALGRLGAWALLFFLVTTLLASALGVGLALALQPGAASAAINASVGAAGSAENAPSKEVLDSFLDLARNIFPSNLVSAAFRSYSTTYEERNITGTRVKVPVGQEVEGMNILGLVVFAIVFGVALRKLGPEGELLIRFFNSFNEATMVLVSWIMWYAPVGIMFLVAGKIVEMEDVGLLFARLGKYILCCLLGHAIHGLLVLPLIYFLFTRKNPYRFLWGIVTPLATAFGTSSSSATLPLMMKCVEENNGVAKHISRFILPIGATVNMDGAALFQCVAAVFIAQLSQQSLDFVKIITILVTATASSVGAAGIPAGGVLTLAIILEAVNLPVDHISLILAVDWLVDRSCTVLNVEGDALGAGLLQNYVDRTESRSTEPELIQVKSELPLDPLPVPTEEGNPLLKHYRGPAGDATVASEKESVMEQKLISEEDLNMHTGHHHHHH

T3: mouse ASCT2-myc/His, expressed on CHO cells (mouse, UniProt P51912 1-553)
T3 construct: also called mouse ASCT2/CHO
T3 sequence: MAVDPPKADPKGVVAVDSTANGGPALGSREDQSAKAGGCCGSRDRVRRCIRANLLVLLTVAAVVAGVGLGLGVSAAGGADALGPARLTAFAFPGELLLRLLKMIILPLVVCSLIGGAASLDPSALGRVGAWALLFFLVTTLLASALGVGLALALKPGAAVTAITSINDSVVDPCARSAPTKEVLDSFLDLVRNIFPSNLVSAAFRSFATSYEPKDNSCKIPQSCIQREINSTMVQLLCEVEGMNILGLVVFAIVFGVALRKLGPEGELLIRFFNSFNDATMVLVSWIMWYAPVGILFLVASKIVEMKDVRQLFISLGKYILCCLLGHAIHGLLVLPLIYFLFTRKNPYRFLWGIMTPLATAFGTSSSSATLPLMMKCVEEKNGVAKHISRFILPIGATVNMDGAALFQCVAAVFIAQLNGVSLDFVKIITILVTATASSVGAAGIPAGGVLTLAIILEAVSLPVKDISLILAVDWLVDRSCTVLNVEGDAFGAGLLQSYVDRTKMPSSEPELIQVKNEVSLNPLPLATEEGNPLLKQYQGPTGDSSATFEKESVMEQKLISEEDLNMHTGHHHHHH

B1: anti-ASCT2 monoclonal antibody KM4008 (hybridoma KM4008, FERM BP-10962) (antibody, V domains shown)
VH: QIQLVQSGPELKKPGETVKISCKASGYTFTTFGMSWVKQVPGKGLKWMGWIHTYAGVPIYGDDFKGRFAFSLETSASTAYLQINNVKNEDTATYFCARRSDNYRYFFDYWGQGTTLTVSS
VL: DIQMTQTTSSLSASLGDRVTISCRASQDIRNYLNWYQRKPHGTVKLLIYYTSRLHSGVPSRFSGSGSGTDYSLTISNLEQEDIATYFCQQGHTLPPTFGGGTKLEIKR
notes: Mouse monoclonal antibody
B2: anti-ASCT2 human chimeric antibody cKM4012 (antibody, V domains shown)
VH: B1 VH with F32Y, V40T, A55S, F64S, A76G, T78I, N102G
VL: B1 VL with T7I, R38Q, H41D, H92N
notes: VH and VL of KM4012 were inserted into vector pKANTEX93, which carries human CH and CL; The SDS-PAGE pattern was consistent with the IgG class
B3: anti-ASCT2 monoclonal antibody KM4012 (hybridoma KM4012, FERM BP-10963) (antibody, V domains shown)
VH: B1 VH with F32Y, V40T, A55S, F64S, A76G, T78I, N102G
VL: B1 VL with T7I, R38Q, H41D, H92N
notes: Hybridoma antibody
B4: anti-ASCT2 monoclonal antibody KM4018 (antibody, V domains shown)
VH: EVQLVESGGGLVQSGRSIRLSCAASGFSFSNYYMAWVRQAPSKGLEWVASITKGGGNTYYRDSVKGRFTFSRDNAKSTLYLQMDSLRSEDTATYYCARQVTIAAVSTSYFDSWGQGVMVTVSS
VL: DIVLTQSPALAVSLGQRATISCKTNQKVDYYGNSYVYWYQQKPGQQPKLLIYLASNLASGIPARFSGRGSGTDFTLTIDPVEADDTATYYCQQSRNLPYTFGAGTKLELKR
notes: Hybridoma antibody
B5: anti-ASCT2 human chimeric antibody cKM4008 (antibody, V domains shown)
VH: B1 VH
VL: B1 VL
notes: VH and VL of KM4008 were inserted into vector pKANTEX93, which carries human CH and CL; The SDS-PAGE pattern was consistent with the IgG class
B6: anti-ASCT2 human chimeric antibody cKM4018 (antibody, V domains shown)
VH: B4 VH
VL: B4 VL
notes: VH and VL of KM4018 were inserted into vector pKANTEX93, which carries human CH and CL; The SDS-PAGE pattern was consistent with the IgG class

Legend:
[1] = biological target: T1, human ASCT2 (system ASC amino acid …); assay: flow cytometry on KMS-11 cells
Experimental: (§1) The human ASCT2-myc/His gene-introduced CHO cell obtained in Example 2, the vector-introduced CHO cell and the multiple myeloma cell line KMS-11 (HSRRB No. JCRB1179) were respectively cultured in a 5% CO₂ incubator for 3 to 4 days at 37° C. The human ASCT2-myc/His gene-introduced CHO cells and the vector-introduced CHO cells were peeled off with a 0.02% EDTA solution (manufactured by Nacalai Tesque) and washed with a mixed solution of PBS, 0.02% EDTA and 0.05% sodium azide. Additionally, in order to avoid the non-specific adsorption of antibodies, the cells were blocked for 30 minutes at ice temperature using 1% BSA-PBS for the human ASCT2-myc/His gene-introduced CHO cells and the vector-introduced CHO cells, and using 100 μg/mL of human IgG (manufactured by Sigma) for KMS-11. The cells were seeded into a 96-well U-bottom plate so as to give a density of 1×10⁵ to 5×10⁵ cells/100 μL/well and centrifuged at 1,500 rpm for 5 minutes (05PR-22, manufactured by Hitachi Koki) and then the supernatant was removed. The test substances as the primary antibody, i.e., the purified antibodies and rat IgG2a-UNLB (negative control, manufactured by Beckman Coulter) or KM511 {negative control, anti-G-CSF derivative antibody, [Agric. Biol. Chem., 53, 1095 (1989)], mouse IgG1} were diluted to give a final concentration of 10 μg/mL in a mixed solution (hereinafter, referred to as “Dilution Solution A”) of 1% BSA-PBS, 0.02% EDTA and 0.05% sodium azide and the resulting solution was added at the volume of 100 μL/well, followed by reaction for 60 minutes at ice temperature. […] Washing with Dilution Solution A was carried out three times again, the cells were suspended in PBS and the fluorescence intensity was measured by a flow cytometer (Cytomics FC500 MPL, manufactured by Beckman Coulter).

[2] = biological target: T2, human ASCT2-myc/His (fusion protein in …); assay: flow cytometry on human ASCT2-myc/His CHO cells
Experimental: as §1

[3] = biological target: T1, human ASCT2 (system ASC amino acid …); assay: flow cytometry on OPM-2 cells, 0.01 to 10 ug/mL
Experimental: (§2) Each of the human ASCT2-myc/His gene-introduced CHO cell obtained in Example 2, and the multiple myeloma cell line OPM-2 (DSMZ Accession No. ACC50) was cultured in a 5% CO₂ incubator for 3 to 4 days at 37° C. The human ASCT2-myc/His gene-introduced CHO cells were peeled off with a 0.02% EDTA solution (manufactured by Nacalai Tesque), and in order to avoid the non-specific adsorption of antibodies, the cells were blocked for 30 minutes at ice temperature using 1% BSA-PBS. The cells were seeded into a 96-well U-bottom plate so as to give a density of 1×10⁵ to 5×10⁵ cells/100 μL/well. The plates were centrifugation at 1,500 rpm for 5 minutes (05PR-22, manufactured by Hitachi Koki), and then the supernatant was removed. As the primary antibody, the purified antibody which was a test substance was diluted to give a final concentration of 0.01 μg/mL to 10 μg/mL in 1% BSA-PBS, and dispensed to the plate at 100 μL/well, followed by reaction at ice temperature for 60 minutes. After washing the cells with 1% BSA-PBS, FITC-labeled anti-human immunoglobulin G (H+L) (manufactured by Jackson Laboratories) diluted with 1% BSA-PBS was added as the secondary antibody, followed by reaction at ice temperature for 30 minutes under shading. The cells were washed with 1% BSA-PBS and then suspended in PBS. The fluorescence intensity of the cells was measured by a flow cytometer (Cytomics FC500 MPL, manufactured by Beckman Coulter).

[4] = biological target: T2, human ASCT2-myc/His (fusion protein in …); assay: flow cytometry on human ASCT2-myc/His CHO cells, 0.01 to 10 ug/mL
Experimental: as §2

[5] = biological target: T3, mouse ASCT2-myc/His, expressed on CHO …; assay: flow cytometry on mouse ASCT2/CHO cells

Binder | binding result [1] | binding result [2] | binding result [3] | binding result [4] | binding result [5]
B1 | binds | binds | – | – | –
B2 | – | – | binds | binds | –
B3 | binds | binds | – | – | –
B4 | binds | binds | – | – | no binding
B5 | – | – | binds | binds | –
B6 | – | – | binds | binds | –
